# Assay results: patent publication US20120316071A1 (published 2012)
# Legend:
# [1] = biological target: T1, Recombinant Human DLL4 (delta-like protein 4) (human, UniProt Q9NR61 27-524); assay: ELISA on plate-coated DLL4, 100 nM Fab
# T1 construct: Bought recombinant protein (R&D Systems Cat#1506-D4/CF); also called rHuman DLL4
# [2] = biological target: T1, Recombinant Human DLL4 (delta-like …); assay: ECL 96-well plate assay on immobilised DLL4, 10 nM Fab
# [3] = biological target: T2, Recombinant Human DLL4 (R&D Systems Cat#1506-D4/CF) (human, UniProt Q9NR61 27-524); assay: ECL multispot (MSD) binding assay, DLL4 spotted on plate, purified Fab in solution; Fab concentration not given
# T2 construct: Bought recombinant protein; also called delta-like protein 4; rHuman DLL4
# [4] = biological target: T2, Recombinant Human DLL4 (R&D Systems …); assay: ECL multispot (MSD) binding assay, DLL4 signal over blank spot; Fab concentration not given
ELISA signal [1],ECL signal [2],ECL signal [3],Signal/Blank [4],Binder
0.01,24500,–,–,"Fab VH1-46_IGHD6-6*01_IGHJ1*01 S102A/S103P/S104F/H111F N52Y & L6_IGKJ1*01 (Fab, V domains shown, Fab from E. coli; CH1 (with His and Flag tags) and kappa CL come from the expression plasmids; also called APFF N52Y) VH: QVQLVQSGAEVKKPGASVKVSCKASGYTFTSYYMHWVRQAPGQGLEWMGIIYPSGGSTSYAQKFQGRVTMTRDTSTSTVYMELSSLRSEDTAVYYCAREEYAPFSAEYFQFWGQGTLVTVSS VL: not shown"
–,–,180000,664,"Fab VH1-46_IGHD6-6*01_IGHJ1*01 S102A/S103P/S104F/H111F (APFF) & L6_IGKJ1*01 S30G (Fab, V domains shown, Fab expressed in E. coli: VH joined to CH1 (Plasmid A, His6 and Flag tags), VL joined to kappa CL (Plasmid C); also called APFF S30G) VH: QVQLVQSGAEVKKPGASVKVSCKASGYTFTSYYMHWVRQAPGQGLEWMGIINPSGGSTSYAQKFQGRVTMTRDTSTSTVYMELSSLRSEDTAVYYCAREEYAPFSAEYFQFWGQGTLVTVSS VL: EIVLTQSPATLSLSPGERATLSCRASQSVGSYLAWYQQKPGQAPRLLIYDASNRATGIPARFSGSGSGTDFTLTISSLEPEDFAVYYCQQRSNWPPWTFGQGTKVEIKR"
–,–,199000,524,"Fab VH1-46_IGHD6-6*01_IGHJ1*01 S102A/S103P/S104F/H111F (APFF) & L6_IGKJ1*01 S30L (Fab, V domains shown, Fab expressed in E. coli: VH joined to CH1 (Plasmid A, His6 and Flag tags), VL joined to kappa CL (Plasmid C); also called APFF S30L) VH: QVQLVQSGAEVKKPGASVKVSCKASGYTFTSYYMHWVRQAPGQGLEWMGIINPSGGSTSYAQKFQGRVTMTRDTSTSTVYMELSSLRSEDTAVYYCAREEYAPFSAEYFQFWGQGTLVTVSS VL: EIVLTQSPATLSLSPGERATLSCRASQSVLSYLAWYQQKPGQAPRLLIYDASNRATGIPARFSGSGSGTDFTLTISSLEPEDFAVYYCQQRSNWPPWTFGQGTKVEIKR"

# Further lines, the binder ahead of its results:
Binder,ELISA signal [1],ECL signal [2],ECL signal [3],Signal/Blank [4]
"Fab VH1-46_IGHD6-6*01_IGHJ1*01 S102A/S103P/S104F/H111F (APFF) & L6_IGKJ1*01 S30C (Fab, V domains shown, Fab expressed in E. coli: VH joined to CH1 (Plasmid A, His6 and Flag tags), VL joined to kappa CL (Plasmid C); also called APFF S30C) VH: QVQLVQSGAEVKKPGASVKVSCKASGYTFTSYYMHWVRQAPGQGLEWMGIINPSGGSTSYAQKFQGRVTMTRDTSTSTVYMELSSLRSEDTAVYYCAREEYAPFSAEYFQFWGQGTLVTVSS VL: EIVLTQSPATLSLSPGERATLSCRASQSVCSYLAWYQQKPGQAPRLLIYDASNRATGIPARFSGSGSGTDFTLTISSLEPEDFAVYYCQQRSNWPPWTFGQGTKVEIKR",–,–,129000,141
"Fab VH1-46_IGHD6-6*01_IGHJ1*01 S102A/S103P/S104F/H111F (APFF) & L6_IGKJ1*01 S28M (Fab, V domains shown, Fab expressed in E. coli: VH joined to CH1 (Plasmid A, His6 and Flag tags), VL joined to kappa CL (Plasmid C); also called APFF S28M) VH: QVQLVQSGAEVKKPGASVKVSCKASGYTFTSYYMHWVRQAPGQGLEWMGIINPSGGSTSYAQKFQGRVTMTRDTSTSTVYMELSSLRSEDTAVYYCAREEYAPFSAEYFQFWGQGTLVTVSS VL: EIVLTQSPATLSLSPGERATLSCRASQMVSSYLAWYQQKPGQAPRLLIYDASNRATGIPARFSGSGSGTDFTLTISSLEPEDFAVYYCQQRSNWPPWTFGQGTKVEIKR",–,–,108000,336
"Fab VH1-46_IGHD6-6*01_IGHJ1*01 S102A/S103P/S104F/H111F (APFF) & L6_IGKJ1*01 S30A (Fab, V domains shown, Fab expressed in E. coli: VH joined to CH1 (Plasmid A, His6 and Flag tags), VL joined to kappa CL (Plasmid C); also called APFF S30A) VH: QVQLVQSGAEVKKPGASVKVSCKASGYTFTSYYMHWVRQAPGQGLEWMGIINPSGGSTSYAQKFQGRVTMTRDTSTSTVYMELSSLRSEDTAVYYCAREEYAPFSAEYFQFWGQGTLVTVSS VL: EIVLTQSPATLSLSPGERATLSCRASQSVASYLAWYQQKPGQAPRLLIYDASNRATGIPARFSGSGSGTDFTLTISSLEPEDFAVYYCQQRSNWPPWTFGQGTKVEIKR",–,–,184000,516
"Fab VH1-46_IGHD6-6*01_IGHJ1*01 S102A/S103P/S104F/H111F (APFF) & L6_IGKJ1*01 S28Q (Fab, V domains shown, Fab expressed in E. coli: VH joined to CH1 (Plasmid A, His6 and Flag tags), VL joined to kappa CL (Plasmid C); also called APFF S28Q) VH: QVQLVQSGAEVKKPGASVKVSCKASGYTFTSYYMHWVRQAPGQGLEWMGIINPSGGSTSYAQKFQGRVTMTRDTSTSTVYMELSSLRSEDTAVYYCAREEYAPFSAEYFQFWGQGTLVTVSS VL: EIVLTQSPATLSLSPGERATLSCRASQQVSSYLAWYQQKPGQAPRLLIYDASNRATGIPARFSGSGSGTDFTLTISSLEPEDFAVYYCQQRSNWPPWTFGQGTKVEIKR",–,–,133000,378
"Fab VH1-46_IGHD6-6*01_IGHJ1*01 S102A/S103P/S104F/H111F (APFF) & L6_IGKJ1*01 S28N (Fab, V domains shown, Fab expressed in E. coli: VH joined to CH1 (Plasmid A, His6 and Flag tags), VL joined to kappa CL (Plasmid C); also called APFF S28N) VH: QVQLVQSGAEVKKPGASVKVSCKASGYTFTSYYMHWVRQAPGQGLEWMGIINPSGGSTSYAQKFQGRVTMTRDTSTSTVYMELSSLRSEDTAVYYCAREEYAPFSAEYFQFWGQGTLVTVSS VL: EIVLTQSPATLSLSPGERATLSCRASQNVSSYLAWYQQKPGQAPRLLIYDASNRATGIPARFSGSGSGTDFTLTISSLEPEDFAVYYCQQRSNWPPWTFGQGTKVEIKR",–,–,204000,778
"Fab VH1-46_IGHD6-6*01_IGHJ1*01 S102A/S103P/S104F/H111F (APFF) & L6_IGKJ1*01 S28A (Fab, V domains shown, Fab expressed in E. coli: VH joined to CH1 (Plasmid A, His6 and Flag tags), VL joined to kappa CL (Plasmid C); also called APFF S28A) VH: QVQLVQSGAEVKKPGASVKVSCKASGYTFTSYYMHWVRQAPGQGLEWMGIINPSGGSTSYAQKFQGRVTMTRDTSTSTVYMELSSLRSEDTAVYYCAREEYAPFSAEYFQFWGQGTLVTVSS VL: EIVLTQSPATLSLSPGERATLSCRASQAVSSYLAWYQQKPGQAPRLLIYDASNRATGIPARFSGSGSGTDFTLTISSLEPEDFAVYYCQQRSNWPPWTFGQGTKVEIKR",–,–,157000,472
"Fab VH1-46_IGHD6-6*01_IGHJ1*01 S102A/S103P/S104F/H111F (APFF) & L6_IGKJ1*01 S30D (Fab, V domains shown, Fab expressed in E. coli: VH joined to CH1 (Plasmid A, His6 and Flag tags), VL joined to kappa CL (Plasmid C); also called APFF S30D) VH: QVQLVQSGAEVKKPGASVKVSCKASGYTFTSYYMHWVRQAPGQGLEWMGIINPSGGSTSYAQKFQGRVTMTRDTSTSTVYMELSSLRSEDTAVYYCAREEYAPFSAEYFQFWGQGTLVTVSS VL: EIVLTQSPATLSLSPGERATLSCRASQSVDSYLAWYQQKPGQAPRLLIYDASNRATGIPARFSGSGSGTDFTLTISSLEPEDFAVYYCQQRSNWPPWTFGQGTKVEIKR",–,–,225000,568
